Assay results: paper PMC10720262 (2023)

B1: CL-460369 (antibody, V domains shown)
VH: QVQLVESGGGVVQPGRSLRLSCAASGFTFSNYGMHWVRQAPGKGLEWVGIIWYDGSNKYYIDSVKGRFTISRDNSRNTLYLQINSLRAEDTAVYYCARDGGWNDDYYYVMDVWGQGTTVTVSS
VL: DIVMTQSPDSLAVSLGEGATINCKSSQSVLYSSNNKNYLAWYQQKPGQPPKVLIYWASIRESGVPDRFSGSGSGTDFTLTISSLQAEDVAVYYCQQYYSMCSFGQGTKLEIK
modifications: peptides N-terminally acetylated and C-terminally amidated
B2: CL-513069 (antibody, V domains shown)
VH: QVQLVESGGGVVQPGKSLRLSCEASGFTFSNYGMHWVRQAPGKGLDWVAIIWHDGGNKFYADSVRGRFTISRDNSKNTLFLQMNSLRAEDSAVYYCARVFDFRDSCYTMDVWGQGTTVTVSS
VL: DIQMTQSPSTLSASVGDRVTITCRASQSISSWLAWYQQKPGKAPKLLIYKASSLESGVPSRFSGSGSGTEFSLTISSLQPDDFATYYCQQYTRYWTFGQGTRVEIQ
modifications: peptides N-terminally acetylated and C-terminally amidated
B3: CL-511026 (antibody, V domains shown)
VH: QVQLVESGGGVVQPGRSLRLSCAASGFTFSNFGMHWVRQAPDRGLEWVSIIWYDGSNKFYADSVKGRFTISRDNSKNTLFLQMDSLRAEDTAVYYCAKAEMRTSDYYNYGMDVWGQGTTVTVSS
VL: DIQMTQSPSTLSASVGDRVTITCRASQSISSWLAWYQQKPGKAPKLLIYKASSLESGVPSRFSGSGSATEFTLTIRSLQPDDFATYYCQQYYSYWTFGQGTKVEIN
modifications: peptides N-terminally acetylated and C-terminally amidated
B4: CL-512275 (antibody, V domains shown)
VH: QVQLVESGGGVVQPGGSFRLSCETSGFTFSNFGMHWVRQAPGKGLEWVALIWYDGSHKFYADSLTGRFTISRDNSKNTLYLQMNSLRVEDTAVYYCARAHSVTTANDKYGTDVWGQGTTVTVSP
VL: DIQMTQSPSTLSASVGDRVTITCRASQSISSWLAWYQHKPGRAPKLLIYKASSLESGIPSRFSGSGSGTEFTLTISSLQPDDFATYFCQQYNSYWTFGQGTKVEIK
modifications: peptides N-terminally acetylated and C-terminally amidated
B5: CL-510487 (antibody, V domains shown)
VH: QVQLEESGGGVVQPGRSLRLSCTATGFTFSNYGMHWVRQAPGRGLEWVGVIWYDGSNKFYVDSVKGRFTISRDNSKNTLYLQMNSLRAEDTAVYYCARDGGYYGSGSYWWFDSWGQGTLVTVSS
VL: DIQMTQSPSTLSASVGDRVTITCRASQSISSWLAWYQQKPGKAPKLLIYKASSLERGVPSRFSGSGSGTEFTLTISSLQPDDFATYYCQQYNRYCSFGQGTKLEIK
modifications: peptides N-terminally acetylated and C-terminally amidated
B6: CL-512011 (antibody, V domains shown)
VH: QVQLVESGGGVVQPGRSLRLSCVTSGFTFSSFGMHWVRQAPGKGLEWVALIWYDGSHKFYADSLTGRFTISRDNSKNTLYLQMNSLRVEDTAVYYCARAHAVTTANDKYGTDVWGQGTTVNVSP
VL: DIQMTQSPSTLSASVGDRVTITCRASQSISSWLAWYQHKPGNAPKLLIYKASNLESGVPSRFSGSGSGTEFTLTISSLQPDDFATYFCQQYNSYWTFGQGTKVEVK
modifications: peptides N-terminally acetylated and C-terminally amidated
B7: Ky15.5 (antibody, V domains shown)
VH: QVQMVASGGGVVQPGRSLRLSCAVSGFTFRNFGMHWVRQDPGRGLEWVAIIWYDGSYEFYADSVKGRFTISRDNSKNTLYLQMNSLRAEDTAVYYCARSYGSLTGDETKYGMDVWGQGTTVTVSS
VL: DIQMTQSPSTLSASVGDRVTITCRASQSISSWLAWFQQKPGKAPKLLIYKASSLESGVPSRFSGSGSGTEFTLTISSLQPDDFATYYCQQYKNYWTFGQGTKVEIK
modifications: peptides N-terminally acetylated and C-terminally amidated
B8: CL-445901 (antibody, V domains shown)
VH: QVQLVESGGGVVQPGRSLRLSCAASGFTFSNYGIHWVRQAPGKGLEWVALIWFNGNNKFYADSVEGRFTVSRDNSKNTLYLQLNSLRAEDTAVYYCARAYYFASGNYMDYWGQGTLVTVSS
VL: DIQMTQSPSSVSASMGDRVTITCRASQDISSSLAWYQQKPGKAPILLISFASSLHSGVPSRFSGSGSGTDFTLTISSLQPEDFATYSCQQANSFPWTFGQGTRVEVK
modifications: peptides N-terminally acetylated and C-terminally amidated
B9: CL-512023 (antibody, V domains shown)
VH: QVQLMESGGGVVQPGRSLRLSCEASGFTFSNSGMHWVRQAPGKGLEWVAIIWYDGSNRYYVDSVKGRFTISRDNSKNTLYLQMNSLRAEDTAVYYCARDGGNRYGYGWFDSWGQGTLVTVSS
VL: QSVLTQPPSVSGAPGQRVTISCTGSSSNIGAGYDVHWYQQLPGTAPKLLIYGNTNRPSGVPDRFSGSKSGTSASLAITGLQAEDEADYYCQSYDSSLGGSRRVFGGGTKLTVL
modifications: peptides N-terminally acetylated and C-terminally amidated
B10: CL-509880 (antibody, V domains shown)
VH: QVQLVESGGGVVQPGRSLRLSCAASGFTFSNSGMHWVRQAPGKGLEWVAVIWYDGSNKYYADSVKGRFTVTRDNSKNTLYLQMNSLRAEDTAVYYCVRAYYGSGSYHFKYGMDVWGQGTTVTVSS
VL: not shown
modifications: peptides N-terminally acetylated and C-terminally amidated
B11: CL-462788 (antibody, V domains shown)
VH: QVQLVESGGGVVQPGRSLRLSCAASGFTFRNYGMHWVRQAPGKGLEWVAIIWYDGSYKFYADSVKGRFTISRDNSKNTLYLQMNSLRAEDTAMYYCARDDALELRSFDIWGQGTMVTVSS
VL: DVVMTQSPLSLPVTLGQPASISCRSSQSLVYSDENTYLSWFQQRPGQSPRRLIYKISNRDSGVPDRFSGSGSGTDFTLKISRVEAEDVGVYYCMQGTHWPRTFGQGTEVEIK
modifications: peptides N-terminally acetylated and C-terminally amidated
B12: CL-510458 (antibody, V domains shown)
VH: QVQLVESGGGVVQPGRSLRLSCAASGFTFNNYGMHWVRQAPGKGLEWVAVIWYDGSNKFHADSVKGRFTISRDNSKNTLYLQMNSLRAEDTALYYCARVYYYDSGSYLDYWGQGTLVTVSS
VL: DIQMTQSPSSVSASVGDRVTITCRASQGISRWLAWYQQKPGKAPKLLIYAASSLQSGVPSRFSGSGSGTDFTLTISSLQPEDFATYCCQQANNFPWTFGQGTKVEIK
modifications: peptides N-terminally acetylated and C-terminally amidated
B13: CL-514716 (antibody, V domains shown)
VH: QIQLVESGGGVVQPGRSLRLSCAASGFTFSTYGMHWVRQAPGKGLEWVAVIWYDGSNKYYADSVQGRFTISRDNSKNTLYLQMNSLRAEDTAIYYCTTVGPIPFDYWGQGTLVTVSS
VL: DIVMTQTPLSSPVILGQPASISCRSSQSLVHSSGNTYLSWLQQRPGQPPRLLIYKTFKRLSGVPDRFSGSGAGTDFTLKISRVEAEDVGVYYCLQSTQFPLTFGGGTKVEIK
modifications: peptides N-terminally acetylated and C-terminally amidated
B14: CL-460619 (antibody, V domains shown)
VH: QVQLVESGGGVVQPGRSLRLSCAASGFTFDYYGMHWVRQAPGKGLEGVAIIWYDGSNKFYADSVKGRFTISRDNSKNTLYLQMTSLRVEDTAVYYCARDGRIGDPGPYFDYWGQGTLVTVSS
VL: EIVMTQSPATLSVSPGERPTLSCRASQSVSSKLAWYQQKPDQAPRLLIYGASTRATGIPPRFSGSGSGTEFTLTIDSLQSEDFAVYYCQQYHKWWTFGQGTKVEIK
modifications: peptides N-terminally acetylated and C-terminally amidated
B15: CL-510427 (antibody, V domains shown)
VH: QVQLVESGGGVVQPGRSLRLSCAASGFTFSNYGMHWVRQAPGKGLEWVAVIWYDGSKEDYADSVKGRLTISRDNSKNTLYLQMNSLRAEDTAVYYCARDGDSRGWYAFDYWGQGTLVTVSS
VL: not shown
modifications: peptides N-terminally acetylated and C-terminally amidated
B16: CL-509326 (antibody, V domains shown)
VH: QVYLVESGEGVVQPGRSLRLSCAASGFTFSNYGMHWVRQAPGKGLEWVAVIWYNGNNKFYADSVKGRFTISRDNSKNTLFLQMNSLRAEDTAVYFCARSGYSRSSYFDYWGQGTLVTVSS
VL: QSVLTQPPSVSGAPGQRVTISCTGSSSNIGAVYDVHWYQQLPGTAPKLLIYGNTNRPSGVPDRFSGSQSGTSASLAITGLQAEDEADYYCQSYDSSLSGSVFGGGTKLTVL
modifications: peptides N-terminally acetylated and C-terminally amidated

Biological target: PfCSP full length (Plasmodium falciparum (isolate NF54), UniProt P19597)
Sequence (P19597 20-375): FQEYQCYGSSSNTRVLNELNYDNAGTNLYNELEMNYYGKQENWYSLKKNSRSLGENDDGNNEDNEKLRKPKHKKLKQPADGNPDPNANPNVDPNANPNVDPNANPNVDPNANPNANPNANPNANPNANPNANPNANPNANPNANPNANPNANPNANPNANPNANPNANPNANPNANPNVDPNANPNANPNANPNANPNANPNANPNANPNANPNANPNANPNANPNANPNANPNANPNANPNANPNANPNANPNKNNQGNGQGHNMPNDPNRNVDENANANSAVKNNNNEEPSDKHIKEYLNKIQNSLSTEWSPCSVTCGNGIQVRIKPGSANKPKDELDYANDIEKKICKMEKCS
Test: ELISA AUC

In order of falling binding score:
1. B9  2.59
2. B4  2.54
3. B6  2.5
4. B7  2.4
5. B8  2.4
6. B15  2.39
7. B1  2.3
8. B11  2.3
9. B2  2.2
10. B14  2.2
11. B16  2.19
12. B3  2.08
13. B12  2
14. B10  1.97
15. B5  1.83
16. B13  1.75
